Experimental data as given in US20140213513A1 (Sanofi, priority 2012, published 2014).
*1 amine or outer side, *2 acyl side, *3 side chain or, on linkers, in order; H or OH if unused. Where no end group is shown, it is not given here. Side-chain parts run from the residue outwards. [ ]: non-standard residue; d: D form. The star is where a group is joined. γGlu = O=C(O)[C@H](CCC(=O)[*:2])N[*:1]; Stearoyl = CCCCCCCCCCCCCCCCCC(=O)*; Palmitoyl = CCCCCCCCCCCCCCCC(=O)*; Aib = CC(C)(N)C(=O)O

T1: human GIP receptor (human, UniProt P48546 22-466)
T1 sequence (looked up): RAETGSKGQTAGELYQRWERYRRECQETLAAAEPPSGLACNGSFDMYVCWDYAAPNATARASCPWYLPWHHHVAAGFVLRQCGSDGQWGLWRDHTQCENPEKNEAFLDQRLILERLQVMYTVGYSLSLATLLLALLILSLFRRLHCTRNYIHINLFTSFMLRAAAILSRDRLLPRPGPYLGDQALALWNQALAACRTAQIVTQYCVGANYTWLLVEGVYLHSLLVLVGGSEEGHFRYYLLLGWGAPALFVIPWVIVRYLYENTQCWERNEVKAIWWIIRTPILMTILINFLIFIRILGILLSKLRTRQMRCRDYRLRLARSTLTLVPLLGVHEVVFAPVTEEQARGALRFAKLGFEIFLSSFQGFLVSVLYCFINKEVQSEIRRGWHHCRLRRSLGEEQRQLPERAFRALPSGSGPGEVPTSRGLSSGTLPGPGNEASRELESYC


Tests used:
Test in all cases: cell-based or functional assay
human GLP-1 receptor = human GLP-1 receptor (human, UniProt P43220 24-463)
human GIP receptor = target: T1, human GIP receptor
human glucagon receptor = human glucagon receptor (human, UniProt P47871 26-477)
Sequence of human glucagon receptor (P47871 26-477): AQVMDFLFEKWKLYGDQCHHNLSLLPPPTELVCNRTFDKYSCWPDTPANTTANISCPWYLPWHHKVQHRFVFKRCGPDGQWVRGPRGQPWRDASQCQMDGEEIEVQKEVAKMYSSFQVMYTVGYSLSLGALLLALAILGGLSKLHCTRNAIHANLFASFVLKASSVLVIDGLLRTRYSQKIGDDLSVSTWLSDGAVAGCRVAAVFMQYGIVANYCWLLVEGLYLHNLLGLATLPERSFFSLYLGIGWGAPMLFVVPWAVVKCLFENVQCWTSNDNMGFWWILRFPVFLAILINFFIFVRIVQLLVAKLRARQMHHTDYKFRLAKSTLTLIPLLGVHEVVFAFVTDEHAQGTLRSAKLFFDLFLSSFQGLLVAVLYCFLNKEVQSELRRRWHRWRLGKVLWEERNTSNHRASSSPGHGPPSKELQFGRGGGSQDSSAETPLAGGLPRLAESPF

| Binder | EC50 hGLP-1 R (human GLP-1 receptor) [nM] | EC50 hGIP R (human GIP receptor) [nM] | EC50 hGLUC R (human glucagon receptor) [nM] |
| --- | --- | --- | --- |
| Y[Aib]QGTFTSDLSIQK([γGlu-Palmitoyl])DSRAAQDFIEWLKRGGPSSGAPPPS-NH2 (N-terminus assumed; SMILES CCCCCCCCCCCCCCCC(=O)N[C@@H](CCC(=O)NCCCC[C@H](NC(=O)[C@H](CCC(N)=O)NC(=O)[C@@H](NC(=O)[C@H](CO)NC(=O)[C@H](CC(C)C)NC(=O)[C@H](CC(=O)O)NC(=O)[C@H](CO)NC(=O)[C@@H](NC(=O)[C@H](Cc1ccccc1)NC(=O)[C@@H](NC(=O)CNC(=O)[C@H](CCC(N)=O)NC(=O)C(C)(C)NC(=O)[C@@H](N)Cc1ccc(O)cc1)[C@@H](C)O)[C@@H](C)O)[C@@H](C)CC)C(=O)N[C@@H](CC(=O)O)C(=O)N[C@@H](CO)C(=O)N[C@@H](CCCNC(=N)N)C(=O)N[C@@H](C)C(=O)N[C@@H](C)C(=O)N[C@@H](CCC(N)=O)C(=O)N[C@@H](CC(=O)O)C(=O)N[C@@H](Cc1ccccc1)C(=O)N[C@H](C(=O)N[C@@H](CCC(=O)O)C(=O)N[C@@H](Cc1c[nH]c2ccccc12)C(=O)N[C@@H](CC(C)C)C(=O)N[C@@H](CCCCN)C(=O)N[C@@H](CCCNC(=N)N)C(=O)NCC(=O)NCC(=O)N1CCC[C@H]1C(=O)N[C@@H](CO)C(=O)N[C@@H](CO)C(=O)NCC(=O)N[C@@H](C)C(=O)N1CCC[C@H]1C(=O)N1CCC[C@H]1C(=O)N1CCC[C@H]1C(=O)N[C@@H](CO)C(N)=O)[C@@H](C)CC)C(=O)O) [exendin-4 peptide analogue SEQ ID NO: 34] | 0.0074 | 0.0513 | 0.222 |
| Y[Aib]EGTFTSDLSKQK([γGlu-Palmitoyl])DKRAAQDFIEWLKNGGPSSGAPPPS-NH2 (N-terminus assumed; SMILES CCCCCCCCCCCCCCCC(=O)N[C@@H](CCC(=O)NCCCC[C@H](NC(=O)[C@H](CCC(N)=O)NC(=O)[C@H](CCCCN)NC(=O)[C@H](CO)NC(=O)[C@H](CC(C)C)NC(=O)[C@H](CC(=O)O)NC(=O)[C@H](CO)NC(=O)[C@@H](NC(=O)[C@H](Cc1ccccc1)NC(=O)[C@@H](NC(=O)CNC(=O)[C@H](CCC(=O)O)NC(=O)C(C)(C)NC(=O)[C@@H](N)Cc1ccc(O)cc1)[C@@H](C)O)[C@@H](C)O)C(=O)N[C@@H](CC(=O)O)C(=O)N[C@@H](CCCCN)C(=O)N[C@@H](CCCNC(=N)N)C(=O)N[C@@H](C)C(=O)N[C@@H](C)C(=O)N[C@@H](CCC(N)=O)C(=O)N[C@@H](CC(=O)O)C(=O)N[C@@H](Cc1ccccc1)C(=O)N[C@H](C(=O)N[C@@H](CCC(=O)O)C(=O)N[C@@H](Cc1c[nH]c2ccccc12)C(=O)N[C@@H](CC(C)C)C(=O)N[C@@H](CCCCN)C(=O)N[C@@H](CC(N)=O)C(=O)NCC(=O)NCC(=O)N1CCC[C@H]1C(=O)N[C@@H](CO)C(=O)N[C@@H](CO)C(=O)NCC(=O)N[C@@H](C)C(=O)N1CCC[C@H]1C(=O)N1CCC[C@H]1C(=O)N1CCC[C@H]1C(=O)N[C@@H](CO)C(N)=O)[C@@H](C)CC)C(=O)O) [exendin-4 peptide analogue SEQ ID NO: 30] | 0.005 | 0.0163 | 1.45 |
| Y[Aib]HGTFTSDLSIQK([γGlu-Stearoyl])EKRAAFEFIEWLKNTGPSSGAPPPS-NH2 (N-terminus assumed; SMILES CCCCCCCCCCCCCCCCCC(=O)N[C@@H](CCC(=O)NCCCC[C@H](NC(=O)[C@H](CCC(N)=O)NC(=O)[C@@H](NC(=O)[C@H](CO)NC(=O)[C@H](CC(C)C)NC(=O)[C@H](CC(=O)O)NC(=O)[C@H](CO)NC(=O)[C@@H](NC(=O)[C@H](Cc1ccccc1)NC(=O)[C@@H](NC(=O)CNC(=O)[C@H](Cc1c[nH]cn1)NC(=O)C(C)(C)NC(=O)[C@@H](N)Cc1ccc(O)cc1)[C@@H](C)O)[C@@H](C)O)[C@@H](C)CC)C(=O)N[C@@H](CCC(=O)O)C(=O)N[C@@H](CCCCN)C(=O)N[C@@H](CCCNC(=N)N)C(=O)N[C@@H](C)C(=O)N[C@@H](C)C(=O)N[C@@H](Cc1ccccc1)C(=O)N[C@@H](CCC(=O)O)C(=O)N[C@@H](Cc1ccccc1)C(=O)N[C@H](C(=O)N[C@@H](CCC(=O)O)C(=O)N[C@@H](Cc1c[nH]c2ccccc12)C(=O)N[C@@H](CC(C)C)C(=O)N[C@@H](CCCCN)C(=O)N[C@@H](CC(N)=O)C(=O)N[C@H](C(=O)NCC(=O)N1CCC[C@H]1C(=O)N[C@@H](CO)C(=O)N[C@@H](CO)C(=O)NCC(=O)N[C@@H](C)C(=O)N1CCC[C@H]1C(=O)N1CCC[C@H]1C(=O)N1CCC[C@H]1C(=O)N[C@@H](CO)C(N)=O)[C@@H](C)O)[C@@H](C)CC)C(=O)O) [exendin-4 peptide analogue SEQ ID NO: 32] | 0.0417 | 0.0335 | 0.0192 |
| Y[Aib]QGTFTSDLSIQK([γGlu-Stearoyl])DEQRAKEFIEWLKAGGPSSGAPPPS-NH2 (N-terminus assumed; SMILES CCCCCCCCCCCCCCCCCC(=O)N[C@@H](CCC(=O)NCCCC[C@H](NC(=O)[C@H](CCC(N)=O)NC(=O)[C@@H](NC(=O)[C@H](CO)NC(=O)[C@H](CC(C)C)NC(=O)[C@H](CC(=O)O)NC(=O)[C@H](CO)NC(=O)[C@@H](NC(=O)[C@H](Cc1ccccc1)NC(=O)[C@@H](NC(=O)CNC(=O)[C@H](CCC(N)=O)NC(=O)C(C)(C)NC(=O)[C@@H](N)Cc1ccc(O)cc1)[C@@H](C)O)[C@@H](C)O)[C@@H](C)CC)C(=O)N[C@@H](CC(=O)O)C(=O)N[C@@H](CCC(=O)O)C(=O)N[C@@H](CCC(N)=O)C(=O)N[C@@H](CCCNC(=N)N)C(=O)N[C@@H](C)C(=O)N[C@@H](CCCCN)C(=O)N[C@@H](CCC(=O)O)C(=O)N[C@@H](Cc1ccccc1)C(=O)N[C@H](C(=O)N[C@@H](CCC(=O)O)C(=O)N[C@@H](Cc1c[nH]c2ccccc12)C(=O)N[C@@H](CC(C)C)C(=O)N[C@@H](CCCCN)C(=O)N[C@@H](C)C(=O)NCC(=O)NCC(=O)N1CCC[C@H]1C(=O)N[C@@H](CO)C(=O)N[C@@H](CO)C(=O)NCC(=O)N[C@@H](C)C(=O)N1CCC[C@H]1C(=O)N1CCC[C@H]1C(=O)N1CCC[C@H]1C(=O)N[C@@H](CO)C(N)=O)[C@@H](C)CC)C(=O)O) [exendin-4 peptide analogue SEQ ID NO: 31] | 0.0148 | 0.0131 | 0.0041 |
| Y[Aib]QGTFTSDLSIQK([γGlu-Palmitoyl])DERAAKDFIEWLKAGGPSSGAPPPS-NH2 (N-terminus assumed; SMILES CCCCCCCCCCCCCCCC(=O)N[C@@H](CCC(=O)NCCCC[C@H](NC(=O)[C@H](CCC(N)=O)NC(=O)[C@@H](NC(=O)[C@H](CO)NC(=O)[C@H](CC(C)C)NC(=O)[C@H](CC(=O)O)NC(=O)[C@H](CO)NC(=O)[C@@H](NC(=O)[C@H](Cc1ccccc1)NC(=O)[C@@H](NC(=O)CNC(=O)[C@H](CCC(N)=O)NC(=O)C(C)(C)NC(=O)[C@@H](N)Cc1ccc(O)cc1)[C@@H](C)O)[C@@H](C)O)[C@@H](C)CC)C(=O)N[C@@H](CC(=O)O)C(=O)N[C@@H](CCC(=O)O)C(=O)N[C@@H](CCCNC(=N)N)C(=O)N[C@@H](C)C(=O)N[C@@H](C)C(=O)N[C@@H](CCCCN)C(=O)N[C@@H](CC(=O)O)C(=O)N[C@@H](Cc1ccccc1)C(=O)N[C@H](C(=O)N[C@@H](CCC(=O)O)C(=O)N[C@@H](Cc1c[nH]c2ccccc12)C(=O)N[C@@H](CC(C)C)C(=O)N[C@@H](CCCCN)C(=O)N[C@@H](C)C(=O)NCC(=O)NCC(=O)N1CCC[C@H]1C(=O)N[C@@H](CO)C(=O)N[C@@H](CO)C(=O)NCC(=O)N[C@@H](C)C(=O)N1CCC[C@H]1C(=O)N1CCC[C@H]1C(=O)N1CCC[C@H]1C(=O)N[C@@H](CO)C(N)=O)[C@@H](C)CC)C(=O)O) [exendin-4 peptide analogue SEQ ID NO: 35] | 0.0035 | 0.0182 | 0.123 |
| Y[Aib]QGTFTSDLSIQK([γGlu-Palmitoyl])EKRAAHEFIEWLKNTGPSSGAPPPS-NH2 (N-terminus assumed; SMILES CCCCCCCCCCCCCCCC(=O)N[C@@H](CCC(=O)NCCCC[C@H](NC(=O)[C@H](CCC(N)=O)NC(=O)[C@@H](NC(=O)[C@H](CO)NC(=O)[C@H](CC(C)C)NC(=O)[C@H](CC(=O)O)NC(=O)[C@H](CO)NC(=O)[C@@H](NC(=O)[C@H](Cc1ccccc1)NC(=O)[C@@H](NC(=O)CNC(=O)[C@H](CCC(N)=O)NC(=O)C(C)(C)NC(=O)[C@@H](N)Cc1ccc(O)cc1)[C@@H](C)O)[C@@H](C)O)[C@@H](C)CC)C(=O)N[C@@H](CCC(=O)O)C(=O)N[C@@H](CCCCN)C(=O)N[C@@H](CCCNC(=N)N)C(=O)N[C@@H](C)C(=O)N[C@@H](C)C(=O)N[C@@H](Cc1c[nH]cn1)C(=O)N[C@@H](CCC(=O)O)C(=O)N[C@@H](Cc1ccccc1)C(=O)N[C@H](C(=O)N[C@@H](CCC(=O)O)C(=O)N[C@@H](Cc1c[nH]c2ccccc12)C(=O)N[C@@H](CC(C)C)C(=O)N[C@@H](CCCCN)C(=O)N[C@@H](CC(N)=O)C(=O)N[C@H](C(=O)NCC(=O)N1CCC[C@H]1C(=O)N[C@@H](CO)C(=O)N[C@@H](CO)C(=O)NCC(=O)N[C@@H](C)C(=O)N1CCC[C@H]1C(=O)N1CCC[C@H]1C(=O)N1CCC[C@H]1C(=O)N[C@@H](CO)C(N)=O)[C@@H](C)O)[C@@H](C)CC)C(=O)O) [exendin-4 peptide analogue SEQ ID NO: 36] | 0.0052 | 0.0301 | 0.0395 |
